# Source: PMC2968749 (Journal of immunology (Baltimore, Md. : 1950), 2009)
# Biological target: the molecule itself
# Experiment: nonreducing SDS-PAGE + mass spectrometry of the band
protein,measurement,value
"native Bet v 1d in aqueous birch pollen extract (BPE) (natural protein, UniProt P43177 1-160, looked up) MGVFNYEIETTSVIPAARLFKAFILDGDNLVPKVAPQAISSVENIEGNGGPGTIKKINFPEGFPFKYVKDRVDEVDHTNFKYNYSVIEGGPVGDTLEKISNEIKIVATPDGGCVLKISNKYHTKGNHEVKAEQVKASKEMGETLLRAVESYLLAHSDAYN",stoichiometry N,2
